# Assay results as given in article PMC6058493.
# Key:
# [1] = target: prostate-specific membrane antigen (PSMA) (UniProt Q04609); experiment: competition (flow cytometry, confocal microscopy); conditions: 2'-fluoro pyrimidines; 3'-spacer-NH2 as purchased; cells incubated 30 min at room temperature, washed 3x with PBS; buffer, salt and pH of incubation not stated; scale: % cells bound by aptamer nanobubbles with excess free aptamer
# [2] = target: prostate-specific membrane antigen (PSMA) (UniProt Q04609); experiment: flow cytometry and confocal microscopy on LNCaP cells; conditions: 2'-fluoro pyrimidines; 3'-spacer-NH2; cells incubated 30 min at room temperature, washed 3x with PBS; buffer, salt and pH of incubation not stated
# UniProt Q04609, sequence (Q04609 whole entry): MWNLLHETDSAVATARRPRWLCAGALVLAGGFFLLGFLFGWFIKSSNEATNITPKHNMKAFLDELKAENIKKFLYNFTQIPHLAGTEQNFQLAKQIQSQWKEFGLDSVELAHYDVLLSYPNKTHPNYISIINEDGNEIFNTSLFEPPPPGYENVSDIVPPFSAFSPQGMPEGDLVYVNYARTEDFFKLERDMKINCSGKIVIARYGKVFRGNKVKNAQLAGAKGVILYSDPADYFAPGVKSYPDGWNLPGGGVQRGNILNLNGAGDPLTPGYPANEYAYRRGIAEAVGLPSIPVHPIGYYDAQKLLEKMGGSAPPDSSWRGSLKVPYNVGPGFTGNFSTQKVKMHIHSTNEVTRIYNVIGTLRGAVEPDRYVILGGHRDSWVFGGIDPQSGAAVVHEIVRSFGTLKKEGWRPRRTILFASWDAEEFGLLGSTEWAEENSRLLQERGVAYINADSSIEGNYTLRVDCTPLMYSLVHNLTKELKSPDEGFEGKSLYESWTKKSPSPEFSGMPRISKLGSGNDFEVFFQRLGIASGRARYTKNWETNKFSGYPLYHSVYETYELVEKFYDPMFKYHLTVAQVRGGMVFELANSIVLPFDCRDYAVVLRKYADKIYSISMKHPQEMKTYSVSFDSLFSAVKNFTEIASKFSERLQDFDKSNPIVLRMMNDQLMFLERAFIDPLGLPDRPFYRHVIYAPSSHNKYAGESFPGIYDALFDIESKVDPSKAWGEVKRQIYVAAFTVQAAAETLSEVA
Sequence,binding signal [1],binding signal (% cells bound) [2]
GGGAGGACGAUGCGGAUCAGCCAUGUUUACGUCACUCCU [A10-3.2 aptamer (free competitor)],4.07,–
GGGAGGACGAUGCGGAUCAGCCAUGUUUACGUCACUCCU [A10-3.2 aptamer on siFoxM1-Apt-CNBs],–,82.4
